B1: Hz45.01-LALA (antibody, human IgG1, kappa, L234A L235A, V domains shown)
VH: QVQLVQSGAEVKKPGASVKVSCKASGYTFTDYYMNWVRQAPGQRLEWIGDINPNNGGTSYNQKFKGRATITVDTSASTAYMELSSLRSEDTAVYYCARGGAELTGTYWYFDVWGQGTTVTVSS
VL: DIQMTQSPSSLSASVGDRVTITCRASENIYSNLAWYQQKPGKAPKVLVYGATNLADGVPSRFSGSGSGTEYTLTISSLQPEDFATYYCQHFWDSPFTFGGGTKVEIKR
notes: Humanized L45S4, human IgG1 L234A/L235A, kappa; also called Humanized 45_01; Hu IgG 45_01 LALA
B2: Hz156.03-LALA (antibody, human IgG1, kappa, L234A L235A, V domains shown)
VH: QVQLVQSGAEVKKPGSSVKVSCKASGYTFTDYYMNWVRQAPGQGLEWIARIYPGVYRTHYNEKFKDRVTLTADKSTSTAYMELSSLRSEDTAVYYCARSGYYGGTYEEDAMDYWGQGTTVTVSS
VL: DIQMTQSPSSLSASVGDRVTITCRASENIYSNLAWYQQKPGKAPKLLVYAATSLADGVPSRFSGSGSGTDYTLTISSLQPEDFATYYCQNFWDTPYTFGQGTKVEIKR
notes: Humanized L156S3, human IgG1 L234A/L235A, kappa

Tests used:
[1] = molecular target: T1, recombinant human ILT4 (LILRB2) (human, UniProt Q8N423 22-460); test: SPR, high resolution kinetics, triplicate, LALA antibody; 95% CI in parentheses
T1 construct: Bought protein (Acro Biosystems or R&D Systems); also called ILTR4

[2] = molecular target: T1, recombinant human ILT4 (LILRB2); test: SPR, Biacore 8K, mAb captured on anti-human Fc, LILRB2 at 100 nM; legend: +++ binding (1-2 nM KD)
Procedure: (§1) SPR was used to determine the specificity of four humanized anti-ILT4 mAbs for binding to LILRB2 and to determine any cross-reactivity with nine other LILRA and LILRB family members. LILR proteins were purchased from Acro Biosystems or R&D Systems, with sequence provided below. The studies were performed with a Biacore 8K instrument using a CM4 sensor chip with a running buffer of HBS-P+, 100 μg/mL BSA. Anti-human Fc specific capture surfaces were prepared using standard amine coupling chemistry. MAb was captured to flow cell 2 with flow cell 1 serving as the reference flow cell. Each of the nine family members and LILRB2 were injected at 100 nM at 30 μL/min for 90 sec with 240 sec of dissociation. […] All sensorgrams were doubled-referenced during processing of the data.

[3] = molecular target: T2, human ILT4 expressed on cells (human, UniProt Q8N423 22-597); test: flow cytometry, blockade of PE-HLA-G tetramer binding to ILT4-CHO cells, Experiment 2
T2 construct: whole, on cells; The same entry is used for endogenous ILT4 of human macrophages; also called CHO-S/ILT4 cells; ILT4-CHO cells

[4] = molecular target: T1, recombinant human ILT4 (LILRB2); test: SPR, high resolution kinetics; reference Hz156
[5] = molecular target: T2, human ILT4 expressed on cells; test: flow based HLA-G blocking assay
[6] = molecular target: T2, human ILT4 expressed on cells; test: flow cytometry, direct binding of AF647-labelled antibody (0-10 µg/ml) to ILT4-CHO cells
Procedure: AF647-Hz45.01-LALA and AF647-Hz156.03-LALA at various concentrations (0-10 μg/ml) were incubated with ILT4-CHO cells and analyzed by flow cytometry.

[7] = molecular target: T3, LILRB1 (human, UniProt Q8NHL6 24-461); test: SPR, Biacore 8K, mAb captured on anti-human Fc, analyte injected
T3 construct: Bought protein; limits of the extracellular domain are marked by bold type not visible here; whole entry named; also called recombinant human LILRB1; ILT2
Procedure, shortened: (§2)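 Antibody captured on an anti-human Fc surface, CM4 chip, HBS-P+ with 100 μg/mL BSA. LILRB2 and nine LILRA/LILRB family members injected at 100 nM, 30 μL/min, 90 s association, 240 s dissociation. Sensorgrams double-referenced.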

[8] = molecular target: T4, LILRA1 (human, UniProt O75019 17-461); test: as above
T4 construct: Bought protein; limits of the extracellular domain are marked by bold type not visible here; whole entry named; also called recombinant human LILRA1
Procedure, shortened: as §2

[9] = molecular target: T5, LILRA3 (human, UniProt Q8N6C8 24-439); test: as above
T5 construct: Bought protein; limits of the part used are marked by bold type not visible here; whole entry named; also called recombinant human LILRA3
Procedure, shortened: as §2

[10] = molecular target: T6, LILRA6 (human, UniProt Q6PI73 24-447); test: as above
T6 construct: Bought protein; limits of the extracellular domain are marked by bold type not visible here; whole entry named; also called recombinant human LILRA6
Procedure, shortened: as §2

[11] = molecular target: T7, LILRA5 (human, UniProt A6NI73 42-268); test: as above
T7 construct: Bought protein; limits of the extracellular domain are marked by bold type not visible here; whole entry named; also called recombinant human LILRA5
Procedure, shortened: as §2

[12] = molecular target: T8, LILRB3 (human, UniProt O75022 24-443); test: as above
T8 construct: Bought protein; limits of the extracellular domain are marked by bold type not visible here; whole entry named; also called recombinant human LILRB3; ILT5
Procedure, shortened: as §2

[13] = molecular target: T9, LILRA4 (human, UniProt P59901 24-446); test: as above
T9 construct: Bought protein; limits of the extracellular domain are marked by bold type not visible here; whole entry named; also called recombinant human LILRA4
Procedure, shortened: as §2

[14] = molecular target: T2, human ILT4 expressed on cells; test: flow cytometry, blockade of PE-HLA-G tetramer binding to ILT4-CHO cells, Experiment 3
[15] = molecular target: T1, recombinant human ILT4 (LILRB2); test: SPR, Biacore T200, medium resolution; koff held at its limit of 4.27e-5 s^-1
Procedure, shortened: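 Mouse, chimeric or humanized mAbs captured on anti-Fc surfaces (CM4 chip); ILT4 injected at 101 to 0.79 nM, 2-fold series, 90 s association, 1200 s dissociation. Run at 25° C in HBS-P+ pH 7.4 with 100 μg/ml BSA; double-referenced global 1:1 fit with mass-transport term, KD=koff/kon.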

[16] = molecular target: T1, recombinant human ILT4 (LILRB2); test: SPR, Biacore 8K, mAb captured on anti-human Fc, LILRB2 at 100 nM; legend: ++++ tight binding (<100 pM KD)
Procedure: as §1

T2 sequence (Q8N423 22-597): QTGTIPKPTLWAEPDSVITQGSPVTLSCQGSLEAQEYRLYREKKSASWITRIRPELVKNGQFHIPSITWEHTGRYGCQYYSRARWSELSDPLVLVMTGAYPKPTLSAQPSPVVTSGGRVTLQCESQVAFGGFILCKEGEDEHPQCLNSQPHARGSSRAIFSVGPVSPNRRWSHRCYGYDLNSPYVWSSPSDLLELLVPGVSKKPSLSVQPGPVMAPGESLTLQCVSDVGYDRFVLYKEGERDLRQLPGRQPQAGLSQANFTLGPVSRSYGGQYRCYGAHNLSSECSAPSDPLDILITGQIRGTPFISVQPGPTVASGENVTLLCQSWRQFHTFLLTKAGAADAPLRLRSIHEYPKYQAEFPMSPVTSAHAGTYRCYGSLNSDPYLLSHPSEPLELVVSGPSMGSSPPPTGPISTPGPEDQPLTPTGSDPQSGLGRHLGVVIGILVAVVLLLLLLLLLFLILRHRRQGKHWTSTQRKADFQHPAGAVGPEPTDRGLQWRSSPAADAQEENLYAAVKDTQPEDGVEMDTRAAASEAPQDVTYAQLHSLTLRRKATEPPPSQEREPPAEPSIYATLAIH
T1 sequence (Q8N423 other isoform, or with tags, fused parts or gaps limits assumed): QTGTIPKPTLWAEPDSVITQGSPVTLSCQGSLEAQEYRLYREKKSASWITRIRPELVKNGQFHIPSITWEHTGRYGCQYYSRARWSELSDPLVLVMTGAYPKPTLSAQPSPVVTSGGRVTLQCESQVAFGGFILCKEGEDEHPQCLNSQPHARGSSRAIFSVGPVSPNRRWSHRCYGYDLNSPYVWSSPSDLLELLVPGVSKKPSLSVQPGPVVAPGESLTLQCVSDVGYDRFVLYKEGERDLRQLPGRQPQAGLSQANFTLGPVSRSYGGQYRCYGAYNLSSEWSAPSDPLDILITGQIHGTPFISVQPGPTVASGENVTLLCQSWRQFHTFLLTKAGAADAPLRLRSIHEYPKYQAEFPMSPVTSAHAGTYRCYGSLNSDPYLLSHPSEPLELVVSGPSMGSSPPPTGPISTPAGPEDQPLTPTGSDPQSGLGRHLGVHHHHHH
T6 sequence (Q6PI73 other isoform, or with tags, fused parts or gaps): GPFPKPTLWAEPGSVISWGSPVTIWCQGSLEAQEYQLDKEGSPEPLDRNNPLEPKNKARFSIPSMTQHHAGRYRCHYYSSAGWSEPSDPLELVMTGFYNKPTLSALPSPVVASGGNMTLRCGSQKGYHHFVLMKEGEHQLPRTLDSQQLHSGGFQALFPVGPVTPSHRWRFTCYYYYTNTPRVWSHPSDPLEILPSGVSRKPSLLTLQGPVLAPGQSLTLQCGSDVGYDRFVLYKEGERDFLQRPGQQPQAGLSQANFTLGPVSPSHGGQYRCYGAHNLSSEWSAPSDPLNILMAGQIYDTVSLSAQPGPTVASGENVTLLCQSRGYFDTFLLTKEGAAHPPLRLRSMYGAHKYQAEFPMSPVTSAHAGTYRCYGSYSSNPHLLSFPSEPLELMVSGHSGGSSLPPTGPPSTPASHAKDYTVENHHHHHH
T3 sequence (Q8NHL6 other isoform, or with tags, fused parts or gaps): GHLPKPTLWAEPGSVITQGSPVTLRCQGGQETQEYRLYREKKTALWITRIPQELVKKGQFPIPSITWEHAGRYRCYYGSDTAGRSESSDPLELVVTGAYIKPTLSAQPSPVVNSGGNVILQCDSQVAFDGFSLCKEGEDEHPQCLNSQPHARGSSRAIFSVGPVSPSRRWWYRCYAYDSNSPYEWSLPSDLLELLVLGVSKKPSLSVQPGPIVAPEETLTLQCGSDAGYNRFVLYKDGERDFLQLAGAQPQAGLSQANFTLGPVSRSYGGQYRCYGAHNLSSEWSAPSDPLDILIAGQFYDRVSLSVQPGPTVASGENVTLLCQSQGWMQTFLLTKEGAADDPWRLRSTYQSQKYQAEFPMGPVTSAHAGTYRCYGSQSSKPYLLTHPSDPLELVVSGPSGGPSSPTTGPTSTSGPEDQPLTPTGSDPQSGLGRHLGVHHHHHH
T8 sequence (O75022 other isoform, or with tags, fused parts or gaps): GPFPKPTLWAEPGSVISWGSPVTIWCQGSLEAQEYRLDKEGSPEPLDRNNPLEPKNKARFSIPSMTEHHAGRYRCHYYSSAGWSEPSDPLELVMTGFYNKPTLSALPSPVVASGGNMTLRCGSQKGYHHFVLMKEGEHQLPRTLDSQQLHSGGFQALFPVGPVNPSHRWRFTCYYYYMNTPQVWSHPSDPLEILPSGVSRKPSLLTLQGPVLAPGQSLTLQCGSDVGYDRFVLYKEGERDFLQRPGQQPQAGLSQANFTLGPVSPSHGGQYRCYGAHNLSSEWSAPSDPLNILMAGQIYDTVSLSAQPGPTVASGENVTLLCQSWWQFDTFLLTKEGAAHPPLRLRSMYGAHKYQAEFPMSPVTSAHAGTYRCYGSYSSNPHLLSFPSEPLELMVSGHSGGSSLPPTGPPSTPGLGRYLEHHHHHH
T4 sequence (O75019 other isoform, or with tags, fused parts or gaps): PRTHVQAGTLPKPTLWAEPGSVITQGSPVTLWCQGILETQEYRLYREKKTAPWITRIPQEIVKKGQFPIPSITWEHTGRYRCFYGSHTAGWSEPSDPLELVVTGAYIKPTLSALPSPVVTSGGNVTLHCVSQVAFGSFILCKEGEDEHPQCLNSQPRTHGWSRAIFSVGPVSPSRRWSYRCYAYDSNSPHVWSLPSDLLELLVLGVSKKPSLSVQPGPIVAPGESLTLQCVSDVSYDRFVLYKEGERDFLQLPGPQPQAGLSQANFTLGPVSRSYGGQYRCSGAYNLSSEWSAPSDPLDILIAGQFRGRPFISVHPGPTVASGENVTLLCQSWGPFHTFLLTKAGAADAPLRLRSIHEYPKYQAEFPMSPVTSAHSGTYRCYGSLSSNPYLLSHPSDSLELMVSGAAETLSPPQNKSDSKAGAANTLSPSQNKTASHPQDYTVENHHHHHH
T5 sequence (Q8N6C8 24-439 A105V limits assumed): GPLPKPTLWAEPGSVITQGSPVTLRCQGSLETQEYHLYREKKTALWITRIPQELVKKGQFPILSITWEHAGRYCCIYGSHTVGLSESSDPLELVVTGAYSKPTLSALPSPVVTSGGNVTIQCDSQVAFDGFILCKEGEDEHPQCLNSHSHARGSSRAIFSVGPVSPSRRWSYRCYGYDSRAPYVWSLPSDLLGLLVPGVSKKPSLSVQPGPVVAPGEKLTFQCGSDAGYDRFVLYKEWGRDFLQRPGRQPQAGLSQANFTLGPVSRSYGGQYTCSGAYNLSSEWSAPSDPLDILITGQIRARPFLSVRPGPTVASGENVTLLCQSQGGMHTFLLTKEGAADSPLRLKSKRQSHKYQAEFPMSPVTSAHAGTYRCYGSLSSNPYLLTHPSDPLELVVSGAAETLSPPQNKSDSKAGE
T9 sequence (P59901 other isoform, or with tags, fused parts or gaps): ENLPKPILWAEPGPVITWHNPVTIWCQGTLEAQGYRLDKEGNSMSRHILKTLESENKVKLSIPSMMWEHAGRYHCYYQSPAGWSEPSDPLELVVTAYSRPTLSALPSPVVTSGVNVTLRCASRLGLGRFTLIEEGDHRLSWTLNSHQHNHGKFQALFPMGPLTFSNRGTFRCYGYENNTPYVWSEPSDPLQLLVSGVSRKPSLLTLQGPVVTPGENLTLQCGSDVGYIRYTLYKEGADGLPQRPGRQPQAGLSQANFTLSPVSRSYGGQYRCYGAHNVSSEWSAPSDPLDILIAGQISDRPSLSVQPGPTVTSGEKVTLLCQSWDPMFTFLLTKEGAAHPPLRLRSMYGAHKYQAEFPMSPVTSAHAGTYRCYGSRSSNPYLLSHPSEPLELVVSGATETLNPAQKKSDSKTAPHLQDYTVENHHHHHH
T7 sequence (A6NI73 other isoform, or with tags, fused parts or gaps): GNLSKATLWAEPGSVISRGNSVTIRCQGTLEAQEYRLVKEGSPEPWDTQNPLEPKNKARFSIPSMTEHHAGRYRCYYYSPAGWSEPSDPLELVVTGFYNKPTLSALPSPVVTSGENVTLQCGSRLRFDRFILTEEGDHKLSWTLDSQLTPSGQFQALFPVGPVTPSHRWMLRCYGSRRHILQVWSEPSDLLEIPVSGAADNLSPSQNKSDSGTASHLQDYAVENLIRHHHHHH

| Binder | kon [1] [M⁻¹ s⁻¹] | KD [2] [nM] | IC50 [3] [µg/mL] | fold faster off-rate than Hz156 [4] [fold] | IC50 [5] [µg/mL] | EC50 (read off the curve) [6] [µg/mL] | binding result [7] | binding result [8] | binding result [9] | binding result [10] | binding result [11] | binding result [12] | binding result [13] | IC50 [14] [µg/mL] | Kd [15] [nM] | koff [15] [s⁻¹] | KD [16] [nM] |
| --- | --- | --- | --- | --- | --- | --- | --- | --- | --- | --- | --- | --- | --- | --- | --- | --- | --- |
| B1 | 3.45e+06 | 1 to 2 | 0.119 | 29 | 0.092 | ~0.2 | no binding (tested: 100 nM) | no binding (tested: 100 nM) | no binding (tested: 100 nM) | no binding (tested: 100 nM) | no binding (tested: 100 nM) | no binding (tested: 100 nM) | no binding (tested: 100 nM) | 0.185 |  |  |  |
| B2 | 3.22e+06 |  | 0.14 |  | 0.212 | ~0.2 | no binding (tested: 100 nM) | no binding (tested: 100 nM) | no binding (tested: 100 nM) | no binding (tested: 100 nM) | no binding (tested: 100 nM) | no binding (tested: 100 nM) | no binding (tested: 100 nM) | 0.233 | ≤ 0.086 | ≤ 4.27e-05 | < 0.1 |
